Biological target: HAdV-C5 capsid (replication-defective, E1-deleted vector HAdV-C5-GFP) (human adenovirus type C5)
Experiment: SPR

## recombinant human langerin protein (hCD207) (from UniProt Q9UJ71 1-328) (receptor)
  Kd: 39 nM
